Source: article PMC9482650, “Quantitative fragmentomics allow affinity mapping of interactomes” (Nature Communications, 2022)

Tests used:
Test in all cases: holdup assay
Set-up in all cases: key: below the threshold = too weak to quantify, mostly under pKd 3.1 to 4
[1] = target: T1, TX1BP3, O14907
T1 sequence (O14907 10-122, limits assumed, looked up): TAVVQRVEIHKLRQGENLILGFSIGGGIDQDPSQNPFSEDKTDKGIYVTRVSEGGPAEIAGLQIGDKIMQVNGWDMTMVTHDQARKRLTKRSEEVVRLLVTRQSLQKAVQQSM

[2] = target: DLG2_3, Q15700
[3] = target: HTRA2, O43464
[4] = target: PARD3_3, Q8TEW0
[5] = target: T2, DVL3, Q92997
T2 sequence (Q92997 244-331, limits assumed, looked up): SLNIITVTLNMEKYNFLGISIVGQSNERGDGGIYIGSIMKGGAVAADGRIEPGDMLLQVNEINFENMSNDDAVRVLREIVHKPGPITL

[6] = target: GRIP2_5, Q9C0E4
[7] = target: LDB3, O75112
[8] = target: Inadl_10, Q8NI35
[9] = target: T3, MPDZ_10, O75970
T3 sequence (O75970 1624-1722, limits assumed, looked up): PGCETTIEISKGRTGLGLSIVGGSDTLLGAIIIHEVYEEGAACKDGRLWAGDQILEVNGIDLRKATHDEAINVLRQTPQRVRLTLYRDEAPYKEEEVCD

[10] = target: T4, DFNB31_2, Q9P202
T4 sequence (Q9P202 274-371, limits assumed, looked up): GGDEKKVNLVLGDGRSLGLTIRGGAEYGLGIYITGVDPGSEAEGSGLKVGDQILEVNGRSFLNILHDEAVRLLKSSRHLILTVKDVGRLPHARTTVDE

[11] = target: NHERF4_2, Q86UT5
[12] = target: T5, LNX2_2, Q8N448
T5 sequence (Q8N448 334-432, limits assumed, looked up): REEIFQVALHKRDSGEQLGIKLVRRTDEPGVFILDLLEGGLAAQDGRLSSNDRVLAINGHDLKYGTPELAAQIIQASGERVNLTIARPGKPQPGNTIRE

[13] = target: GRIP2_4, Q9C0E4
[14] = target: T6, DLG3_1, Q92796
T6 sequence (Q92796 125-227, limits assumed, looked up): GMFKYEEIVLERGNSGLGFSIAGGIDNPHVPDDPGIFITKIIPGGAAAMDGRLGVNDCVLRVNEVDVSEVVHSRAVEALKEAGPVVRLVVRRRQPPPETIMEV

[15] = target: T7, APBA2_2, Q99767
T7 sequence (Q99767 654-744, limits assumed, looked up): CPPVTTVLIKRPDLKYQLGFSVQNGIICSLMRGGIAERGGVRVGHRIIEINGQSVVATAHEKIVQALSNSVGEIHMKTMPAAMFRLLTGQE

[16] = target: GRIP2_6, Q9C0E4
[17] = target: MAGI1_2, Q96QZ7
[18] = target: T8, FRMPD1, Q5SYB0
T8 sequence (Q5SYB0 52-145, limits assumed, looked up): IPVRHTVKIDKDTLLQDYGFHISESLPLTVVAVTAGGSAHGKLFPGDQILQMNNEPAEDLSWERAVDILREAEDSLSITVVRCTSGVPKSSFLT

[19] = target: DLG1_1, Q12959
[20] = target: T9, LIN7C, Q9NUP9
T9 sequence (Q9NUP9 88-185, limits assumed, looked up): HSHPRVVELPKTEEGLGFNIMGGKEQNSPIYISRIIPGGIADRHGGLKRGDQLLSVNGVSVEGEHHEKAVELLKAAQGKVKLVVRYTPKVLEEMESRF

[21] = target: T10, MPP2, Q14168
T10 sequence (Q14168 180-250, limits assumed, looked up): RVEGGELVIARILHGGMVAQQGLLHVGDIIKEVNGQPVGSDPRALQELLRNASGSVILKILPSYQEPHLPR

[22] = target: T11, SIPA1L2, Q9P2F8
T11 sequence (Q9P2F8 945-1036, limits assumed, looked up): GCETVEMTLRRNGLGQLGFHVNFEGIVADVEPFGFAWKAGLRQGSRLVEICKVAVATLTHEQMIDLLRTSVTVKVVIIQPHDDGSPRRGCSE

[23] = target: GORASP1, Q9BQQ3
[24] = target: GRIP2_7, Q9C0E4
[25] = target: NOS1, P29475
[26] = target: SCRIB_3, Q14160
[27] = plain residues with an end cap or a label only (N-terminal biotin on a linker: ahx)
[28] = plain residues with an end cap or a label only (N-terminal biotin on a linker: ado-ado)
[29] = plain residues with an end cap or a label only (N-terminal biotin on a linker: ttds)

GRIP2_4, Q9C0E4, sequence (Q9C0E4 446-548): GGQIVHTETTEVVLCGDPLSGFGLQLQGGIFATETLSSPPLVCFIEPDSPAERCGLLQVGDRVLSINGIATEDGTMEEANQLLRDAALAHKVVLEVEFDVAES
GRIP2_6, Q9C0E4, sequence (Q9C0E4 648-740): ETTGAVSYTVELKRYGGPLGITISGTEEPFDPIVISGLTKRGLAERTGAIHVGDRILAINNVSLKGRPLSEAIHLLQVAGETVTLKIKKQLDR
MAGI1_2, Q96QZ7, sequence (Q96QZ7 456-580): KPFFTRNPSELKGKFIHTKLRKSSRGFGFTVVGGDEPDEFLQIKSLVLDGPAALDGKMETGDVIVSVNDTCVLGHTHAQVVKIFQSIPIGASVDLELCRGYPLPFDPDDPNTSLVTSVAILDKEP
Inadl_10, Q8NI35, sequence (Q8NI35 1673-1763): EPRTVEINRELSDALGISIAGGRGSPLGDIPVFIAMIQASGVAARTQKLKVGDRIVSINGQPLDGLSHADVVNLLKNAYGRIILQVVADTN
HTRA2, O43464, sequence (O43464 355-458): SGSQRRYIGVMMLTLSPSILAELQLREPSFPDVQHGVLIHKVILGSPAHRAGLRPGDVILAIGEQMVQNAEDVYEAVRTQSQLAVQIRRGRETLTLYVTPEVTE
GRIP2_5, Q9C0E4, sequence (Q9C0E4 544-642): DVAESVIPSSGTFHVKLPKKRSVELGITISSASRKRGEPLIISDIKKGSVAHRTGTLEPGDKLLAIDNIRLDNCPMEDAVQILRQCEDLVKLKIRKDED
GRIP2_7, Q9C0E4, sequence (Q9C0E4 934-1023): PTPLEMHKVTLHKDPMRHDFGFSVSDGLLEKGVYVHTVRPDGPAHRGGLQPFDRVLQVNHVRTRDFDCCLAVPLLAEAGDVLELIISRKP
NHERF4_2, Q86UT5, sequence (Q86UT5 220-308): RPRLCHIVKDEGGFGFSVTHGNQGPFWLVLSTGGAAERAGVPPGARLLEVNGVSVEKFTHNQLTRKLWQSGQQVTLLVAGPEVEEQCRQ
NOS1, P29475, sequence (P29475 9-101): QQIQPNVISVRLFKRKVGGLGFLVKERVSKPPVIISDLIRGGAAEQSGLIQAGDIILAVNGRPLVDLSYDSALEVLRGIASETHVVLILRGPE
SCRIB_3, Q14160, sequence (Q14160 999-1103): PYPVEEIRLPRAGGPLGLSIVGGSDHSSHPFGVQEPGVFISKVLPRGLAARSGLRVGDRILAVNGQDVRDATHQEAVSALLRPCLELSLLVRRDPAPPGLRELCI
LDB3, O75112, sequence (O75112 1-94): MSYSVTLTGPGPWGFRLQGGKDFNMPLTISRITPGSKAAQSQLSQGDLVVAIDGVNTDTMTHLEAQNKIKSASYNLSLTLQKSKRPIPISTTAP
PARD3_3, Q8TEW0, sequence (Q8TEW0 582-685): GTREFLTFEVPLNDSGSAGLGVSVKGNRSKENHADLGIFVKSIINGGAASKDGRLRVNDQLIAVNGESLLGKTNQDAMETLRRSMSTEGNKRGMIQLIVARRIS
GORASP1, Q9BQQ3, sequence (Q9BQQ3 1-208): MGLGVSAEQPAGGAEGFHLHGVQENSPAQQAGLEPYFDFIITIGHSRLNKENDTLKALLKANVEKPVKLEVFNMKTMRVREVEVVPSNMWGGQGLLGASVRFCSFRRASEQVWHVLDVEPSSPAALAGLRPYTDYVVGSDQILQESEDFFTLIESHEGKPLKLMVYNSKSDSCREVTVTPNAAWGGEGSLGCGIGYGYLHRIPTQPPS

Binder RRRKRKRTYL [HPV49-L2, P36762] has a pKd [1, 27] of 3.48, a pKd [2, 27] of 3.54 and a pKd [3, 27] of 3.49. For the same binder, the pKd [4, 27] was “below the threshold”, the pKd [5, 27] was 3.57 and the pKd [6, 27] was “below the threshold”. For the same binder, the pKd [7, 27] was “below the threshold”, the pKd [8, 27] was “below the threshold” and the pKd [9, 27] was 3.94. The pKd [10, 27] was “below the threshold”, the pKd [11, 27] was “below the threshold” and the pKd [12, 27] was “below the threshold”. For the same binder, the pKd [13, 27] was 4.37, the pKd [14, 27] was “below the threshold” and the pKd [15, 27] was “below the threshold”. The pKd [16, 27] was “below the threshold”, the pKd [17, 27] was 5.71 and the pKd [18, 27] was “below the threshold”. The pKd [19, 27] was 3.49, the pKd [20, 27] was “below the threshold” and the pKd [21, 27] was 3.74. The pKd [22, 27] was “below the threshold”, the pKd [23, 27] was 4.65 and the pKd [24, 27] was 3.68. The pKd [25, 27] was 3.71 and the pKd [26, 27] was 3.75.

In the case of NRKREIFSNF [NHERF2, Q15599], the pKd [1, 27] is reported as “below the threshold”, the pKd [2, 27] is reported as “below the threshold” and the pKd [3, 27] is reported as “below the threshold”. The pKd [4, 27] was “below the threshold”, the pKd [5, 27] was “below the threshold” and the pKd [6, 27] was “below the threshold”. The pKd [7, 27] was “below the threshold”, the pKd [8, 27] was “below the threshold” and the pKd [9, 27] was “below the threshold”. The pKd [10, 27] was “below the threshold”, the pKd [11, 27] was “below the threshold” and the pKd [12, 27] was “below the threshold”. The pKd [13, 27] was “below the threshold”, the pKd [14, 27] was “below the threshold” and the pKd [15, 27] was “below the threshold”. For the same binder, the pKd [16, 27] was “below the threshold”, the pKd [17, 27] was “below the threshold” and the pKd [18, 27] was “below the threshold”. The pKd [19, 27] was “below the threshold”, the pKd [20, 27] was “below the threshold” and the pKd [21, 27] was “below the threshold”. For the same binder, the pKd [22, 27] was “below the threshold”, the pKd [23, 27] was “below the threshold” and the pKd [24, 27] was “below the threshold”. The pKd [25, 27] was “below the threshold” and the pKd [26, 27] was “below the threshold”.

PLSPEQPTKL [TRIM50, Q86XT4] was tested, and the pKd [1, 28] was “below the threshold”, the pKd [2, 28] was “below the threshold” and the pKd [3, 28] was “below the threshold”. The pKd [4, 28] was “below the threshold”, the pKd [5, 28] was “below the threshold” and the pKd [6, 28] was “below the threshold”. For the same binder, the pKd [7, 28] was “below the threshold”, the pKd [8, 28] was “below the threshold” and the pKd [9, 28] was “below the threshold”. For the same binder, the pKd [10, 28] was “below the threshold”, the pKd [11, 28] was “below the threshold” and the pKd [12, 28] was “below the threshold”. The pKd [13, 28] was “below the threshold”, the pKd [14, 28] was “below the threshold” and the pKd [15, 28] was “below the threshold”. For the same binder, the pKd [16, 28] was “below the threshold”, the pKd [17, 28] was “below the threshold” and the pKd [18, 28] was “below the threshold”. The pKd [19, 28] was “below the threshold”, the pKd [20, 28] was 3.82 and the pKd [21, 28] was “below the threshold”. For the same binder, the pKd [22, 28] was “below the threshold”, the pKd [23, 28] was “below the threshold” and the pKd [24, 28] was “below the threshold”. The pKd [25, 28] was “below the threshold” and the pKd [26, 28] was “below the threshold”.

For EVVHTPETSV [SLC16A3, O15427], the pKd [1, 29] was 3.84, the pKd [2, 29] was 4.35 and the pKd [3, 29] was “below the threshold”. For the same binder, the pKd [4, 29] was “below the threshold”, the pKd [5, 29] was “below the threshold” and the pKd [6, 29] was “below the threshold”. The pKd [7, 29] was “below the threshold”, the pKd [8, 29] was “below the threshold” and the pKd [9, 29] was “below the threshold”. The pKd [10, 29] was “below the threshold”, the pKd [11, 29] was “below the threshold” and the pKd [12, 29] was “below the threshold”. For the same binder, the pKd [13, 29] was “below the threshold”, the pKd [14, 29] was “below the threshold” and the pKd [15, 29] was “below the threshold”. For the same binder, the pKd [16, 29] was “below the threshold”, the pKd [17, 29] was “below the threshold” and the pKd [18, 29] was “below the threshold”. For the same binder, the pKd [19, 29] was 3.87, the pKd [20, 29] was 4.07 and the pKd [21, 29] was “below the threshold”. The pKd [22, 29] was “below the threshold”, the pKd [23, 29] was “below the threshold” and the pKd [24, 29] was “below the threshold”. It also gave a pKd [25, 29] of 3.71 and a pKd [26, 29] of 4.58.

With HNAFLSVTTV [PDZRN4, Q6ZMN7] the pKd [1, 27] was “below the threshold”, the pKd [2, 27] was 3.53 and the pKd [3, 27] was “below the threshold”. For the same binder, the pKd [4, 27] was 3.81, the pKd [5, 27] was “below the threshold” and the pKd [6, 27] was “below the threshold”. For the same binder, the pKd [7, 27] was 3.56, the pKd [8, 27] was 3.57 and the pKd [9, 27] was 3.75. For the same binder, the pKd [10, 27] was “below the threshold”, the pKd [11, 27] was “below the threshold” and the pKd [12, 27] was 3.87. For the same binder, the pKd [13, 27] was “below the threshold”, the pKd [14, 27] was 3.56 and the pKd [15, 27] was “below the threshold”. For the same binder, the pKd [16, 27] was 3.56, the pKd [17, 27] was 3.61 and the pKd [18, 27] was “below the threshold”. For the same binder, the pKd [19, 27] was 3.54, the pKd [20, 27] was 3.68 and the pKd [21, 27] was “below the threshold”. For the same binder, the pKd [22, 27] was “below the threshold”, the pKd [23, 27] was “below the threshold” and the pKd [24, 27] was “below the threshold”. For the same binder, the pKd [25, 27] was “below the threshold” and the pKd [26, 27] was “below the threshold”.
